Assay [1] concerns the target T1, SYNGAP of rat brain (endogenous) (rat, UniProt Q9QUH6 174-1308, limits assumed).
T1 construct: Native protein in brain homogenates, deoxycholate extracts of brain membranes and cultured hippocampal neurons; runs as a doublet or triplet, so the isoform is not certain; also called 130 kDa protein in brain; doublet or triplet of proteins at 130 kDa
T1 sequence: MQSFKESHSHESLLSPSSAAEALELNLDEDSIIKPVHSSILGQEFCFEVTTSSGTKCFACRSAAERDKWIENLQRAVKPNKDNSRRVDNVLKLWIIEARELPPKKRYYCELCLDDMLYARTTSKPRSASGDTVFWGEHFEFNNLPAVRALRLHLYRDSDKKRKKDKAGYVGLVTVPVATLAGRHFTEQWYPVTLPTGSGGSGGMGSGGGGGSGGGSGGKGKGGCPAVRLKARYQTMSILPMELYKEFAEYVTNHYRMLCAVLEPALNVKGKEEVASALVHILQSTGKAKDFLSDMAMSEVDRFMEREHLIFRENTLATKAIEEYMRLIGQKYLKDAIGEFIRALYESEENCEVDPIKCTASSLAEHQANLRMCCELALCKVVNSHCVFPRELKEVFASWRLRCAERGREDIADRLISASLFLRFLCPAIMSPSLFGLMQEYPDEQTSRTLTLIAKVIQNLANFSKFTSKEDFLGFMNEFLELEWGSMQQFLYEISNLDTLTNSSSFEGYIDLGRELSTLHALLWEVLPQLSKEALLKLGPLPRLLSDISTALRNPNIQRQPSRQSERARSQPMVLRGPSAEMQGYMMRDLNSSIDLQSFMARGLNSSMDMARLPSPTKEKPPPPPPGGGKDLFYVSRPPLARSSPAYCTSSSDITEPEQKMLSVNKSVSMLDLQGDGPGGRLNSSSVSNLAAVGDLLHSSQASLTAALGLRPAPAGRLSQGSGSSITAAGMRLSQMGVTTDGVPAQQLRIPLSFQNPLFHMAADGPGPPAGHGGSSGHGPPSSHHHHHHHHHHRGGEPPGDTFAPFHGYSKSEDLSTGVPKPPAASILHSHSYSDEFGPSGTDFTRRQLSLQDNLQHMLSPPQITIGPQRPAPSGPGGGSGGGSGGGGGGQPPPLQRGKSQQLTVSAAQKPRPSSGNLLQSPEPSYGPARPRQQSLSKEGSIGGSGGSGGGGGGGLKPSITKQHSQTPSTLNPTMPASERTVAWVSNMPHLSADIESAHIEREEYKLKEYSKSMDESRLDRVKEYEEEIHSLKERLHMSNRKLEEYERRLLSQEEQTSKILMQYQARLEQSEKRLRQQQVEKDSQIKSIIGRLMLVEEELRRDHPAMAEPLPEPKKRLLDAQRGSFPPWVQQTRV
The assay can be described thus: coimmunoprecipitation from deoxycholate solubilized rat brain membranes, immunoblot. (In general: Immunoblotting shows a protein as a band on a membrane.)
Description: Cortex and hippocampus from a male Sprague-Dawley rat, age of 4 to 6 weeks were homogenized twice using a glass-Teflon homogenizer with protease inhibitors (antipain, chymotrypsin, leupeptin, Trasylol, 0.1 mM PMSF). After determining the protein concentration of the P2 fraction by a Coomasie assay (Pierce), aliquots of the proteins at 3 mg/ml were stored at −80° C. until use. For coimmunoprecipitation, PA (300 μg per IP) was solubilized by 1.0% sodium deoxycholate followed by 0.1% Triton X-100 and the preparation was centrifuged for 10 minutes at 100,000×g. The supernatant was then used for coimmunoprecipitation.
The clarified supernatant of solubilized P2 fraction was then added to the sepharose beads and the mixture incubated for 2 to 3 hours at 4° C. […] When the antibodies were blocked with antigens, they were preincubated with the peptide at concentration of 100 µg/ml or fusion proteins at concentration of 50 µg/ml.

Assay [2] has as its target T2, SYNGAP deletion mutant 894 to 1134 (-QTR*) (rat, UniProt Q9QUH6 1067-1307).
T2 construct: PCR generated deletion mutant, ends in -QTR; not shown: The GAL4 two-hybrid fusion domain and its junction residues
T2 sequence: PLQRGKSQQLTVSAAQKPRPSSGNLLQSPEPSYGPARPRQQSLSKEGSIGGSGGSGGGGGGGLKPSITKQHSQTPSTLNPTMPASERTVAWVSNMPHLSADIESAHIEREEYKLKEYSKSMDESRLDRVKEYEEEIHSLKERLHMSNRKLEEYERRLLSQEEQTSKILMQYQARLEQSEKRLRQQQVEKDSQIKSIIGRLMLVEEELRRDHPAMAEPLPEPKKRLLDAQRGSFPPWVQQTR
Description: yeast two-hybrid, HIS3 growth without leucine, tryptophan and histidine in 100 mM 3-aminotriazole. From the text: (§1) The PDZ domains of PSD-95/SAP90 and SAP102 were amplified by PCR and subcloned into the yeast vector, pPC 86. PDZ domain 1 of PSD-95 covers the amino acids from 40 to 160; PDZ domain 2, from 156 to 248; and PDZ domain 3, from 298 to 403. See e.g., Cho et al., (1992) Neuron 9:929 for disclosure relating to the PSD-95 sequence.

Assay [3] deals with T3, SYNGAP deletion mutant 894 to 1132 (-Q*) (rat, UniProt Q9QUH6 1067-1305).
T3 construct: PCR generated deletion mutant, ends in -Q; not shown: The GAL4 two-hybrid fusion domain and its junction residues
T3 sequence: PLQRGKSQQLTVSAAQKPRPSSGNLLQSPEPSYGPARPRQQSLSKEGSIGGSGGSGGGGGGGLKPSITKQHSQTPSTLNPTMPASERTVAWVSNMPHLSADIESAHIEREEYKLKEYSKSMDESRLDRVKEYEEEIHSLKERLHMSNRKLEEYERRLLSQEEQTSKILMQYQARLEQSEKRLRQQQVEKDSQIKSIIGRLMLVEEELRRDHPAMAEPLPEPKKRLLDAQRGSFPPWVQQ
The description is as above.
Description: as §1

B1: GluR1 subunit of rat brain (endogenous) (receptor, UniProt P19490 19-907, looked up)
chain: ANFPNNIQIGGLFPNQQSQEHAAFRFALSQLTEPPKLLPQIDIVNISDSFEMTYRFCSQFSKGVYAIFGFYERRTVNMLTSFCGALHVCFITPSFPVDTSNQFVLQLRPELQEALISIIDHYKWQTFVYIYDADRGLSVLQRVLDTAAEKNWQVTAVNILTTTEEGYRMLFQDLEKKKERLVVVDCESERLNAILGQIVKLEKNGIGYHYILANLGFMDIDLNKFKESGANVTGFQLVNYTDTIPARIMQQWRTSDSRDHTRVDWKRPKYTSALTYDGVKVMAEAFQSLRRQRIDISRRGNAGDCLANPAVPWGQGIDIQRALQQVRFEGLTGNVQFNEKGRRTNYTLHVIEMKHDGIRKIGYWNEDDKFVPAATDAQAGGDNSSVQNRTYIVTTILEDPYVMLKKNANQFEGNDRYEGYCVELAAEIAKHVGYSYRLEIVSDGKYGARDPDTKAWNGMVGELVYGRADVAVAPLTITLVREEVIDFSKPFMSLGISIMIKKPQKSKPGVFSFLDPLAYEIWMCIVFAYIGVSVVLFLVSRFSPYEWHSEEFEEGRDQTTSDQSNEFGIFNSLWFSLGAFMQQGCDISPRSLSGRIVGGVWWFFTLIIISSYTANLAAFLTVERMVSPIESAEDLAKQTEIAYGTLEAGSTKEFFRRSKIAVFEKMWTYMKSAEPSVFVRTTEEGMIRVRKSKGKYAYLLESTMNEYIEQRKPCDTMKVGGNLDSKGYGIATPKGSALRNPVNLAVLKLNEQGLLDKLKNKWWYDKGECGSGGGDSKDKTSALSLSNVAGVFYILIGGLGLAMLVALIEFCYKSRSESKRMKGFCLIPQQSINEAIRTSTLPRNSGAGASGGGGSGENGRVVSQDFPKSMQSIPCMSHSSGMPLGATGL
notes: also called NMDA receptor GluR1 subunit (so in the source)
Turning to B1, in assay [1], the binding result is “no binding”.

B2: SAP102 PDZ 3 subcloned into yeast vector pPC 86 (other, UniProt Q62936 404-484, looked up, not shown: large carriers)
chain: KIILHKGSTGLGFNIVGGEDGEGIFVSFILAGGPADLSGELRRGDRILSVNGVNLRNATHEQAAAALKRAGQSVTIVAQYR
notes: domain: PDZ 3; Limits of the pPC86 construct are not restated; the bait construct of the same domain covers 367 to 452; also called third PDZ domain of SAP102
Consider B2, for which the binding result in assay [2] and in assay [3] was “no binding” throughout.

Values taken from patent US6723838 (Johns Hopkins, dated 2004).
